Results taken from paper PMC5587665.

Legend:
[1] = target: GTP-γS-tubulin-dimer (porcine brain tubulin), P02550;Q767L7; assay: DLS; conditions: room temperature; 1:1 mixture
[2] = target: GTP-γS-tubulin-dimer (porcine brain tubulin), P02550;Q767L7; assay: SEC-MALS
[3] = target: GTP-γS-tubulin-dimer (porcine brain tubulin) (porcine) (UniProt P02550); assay: SEC; size-exclusion chromatography at 4 °C; tubulin with the GTP analog GTP-γS; 1:1 mixture of each 1 mM (so in the source) CP525 and tubulin-dimer; fractions checked by SDS-PAGE

other: %Polyd (polydispersity of the mixture) [1]	other: MW-R (of the mixture) [1]	other: Rh (hydrodynamic radius of the mixture) [1]	other: Molar mass of the mixture, Peak 1 [2]	other: Molar mass of the mixture, Peak 2 [2]	stoichiometry N (CP525:tubulin-dimer) [3]	Substance
64.9%	538 kDa	8.8 nm	95.9 kDa	86.2 kDa	–	CP525 (7 x His-tag and human CRMP2 residues 1-525) (from UniProt Q16555) K483A; R485A; R487A
–	–	–	–	–	1	CP525 (7 x His-tag and human CRMP2 residues 1-525) (from UniProt Q16555 1-525) (domain or fragment)
52%	524 kDa	8.6 nm	214 kDa	113 kDa	–	CP525 (7 x His-tag and human CRMP2 residues 1-525) (from UniProt Q16555) T246A; N247A
